According to PMC2408616, “Modular Organization and Combinatorial Energetics of Proline–Tyrosine Nuclear Localization Signals” (PLoS Biology, 2008):

B1: MBP–Hrp1p NLS [S. cerevisiae] / Kap104p [yeast (S. cerevisiae)] (parent)
chain 1: RDRNDRDRDYNHRSGGNHRRNGRGGRGGYNRRNNGYHPYNR
chain 2: MASTWKPAEDYVLQLATLLQNCMSPNPEIRNNAMEAMENFQLQPEFLNYLCYILIEGESDDVLKQHYSLQDLQNNRATAGMLLKNSMLGGNNLIKSNSHDLGYVKSNIIHGLYNSNNNLVSNVTGIVITTLFSTYYRQHRDDPTGLQMLYQLLELTSNGNEPSIKALSKIMEDSAQFFQLEWSGNTKPMEALLDSFFRFISNPNFSPVIRSESVKCINTVIPLQTQSFIVRLDKFLEIIFQLAQNDENDLVRAQICISFSFLLEFRPDKLVSHLDGIVQFMLHLITTVNEEKVAIEACEFLHAFATSPNIPEHILQPYVKDIVPILLSKMVYNEESIVLLEASNDDDAFLEDKDEDIKPIAPRIVKKKEAGNGEDADDNEDDDDDDDDEDGDVDTQWNLRKCSAATLDVMTNILPHQVMDIAFPFLREHLGSDRWFIREATILALGAMAEGGMKYFNDGLPALIPFLVEQLNDKWAPVRKMTCWTLSRFSPWILQDHTEFLIPVLEPIINTLMDKKKDVQEAAISSVAVFIENADSELVETLFYSQLLTSFDKCLKYYKKKNLIILYDAIGRFAEKCALDETAMQIILPPLIEKWALLSDSDKELWPLLECLSCVASSLGERFMPMAPEVYNRAFRILCHCVELEAKSHQDPTIVVPEKDFIITSLDLIDGLVQGLGAHSQDLLFPQGTKDLTILKIMLECLQDPVHEVRQSCFALLGDIVYFFNSELVIGNLEDFLKLIGTEIMHNDDSDGTPAVINAIWALGLISERIDLNTYIIDMSRIILDLFTTNTQIVDSSVMENLSVTIGKMGLTHPEVFSSGAFANDSNWNKWCLSVNALDDVEEKSSAYMGFLKIINLTSTEVTMSNDTIHKIVTGLSSNVEANVFAQEIYTFLMNHSAQISAINFTPDEISFLQQFTS
B2: MBP–Nab2p NLS [S. cerevisiae] / Kap104p [yeast (S. cerevisiae)] (parent)
chain 1: DNSQRFTQRGGGAVGKNRRGGRGGNRGGRNNNSTRFNPLAKALGMAGESNM
chain 2: B1 chain 2

Columns and labels:
Experiment in all cases: ITC
[1] = variants of: B1; details: with Kap104p [yeast (S. cerevisiae)]
[2] = variants of: B1; details: with Kap104p [yeast (S. cerevisiae)]; for Kd: parent: 32 nM; for ratio to parent: parent: 1
[3] = variants of: B2; details: with Kap104p [yeast (S. cerevisiae)]; for ratio to parent: parent: 1; for dG: parent: -10

Variant | screen value [1] | ddG [2] | screen value [2] | Kd [2] | ratio to parent [2] | ratio to parent [3] | ddG [3] | screen value [3] | dG [3]
chain 1 R19K R20K R23K R26K | -2.8 kcal/mol/K | -0.05 kcal/mol | -12.8 kcal/mol | 36 nM | 1.1 | – | – | – | –
chain 1 Y36A | – | – | – | 143 nM | – | – | – | – | –
chain 1 R31A | -1.8 kcal/mol/K | 0.07 kcal/mol | -11.7 kcal/mol | – | 1.1 | – | – | – | –
chain 1 R19A Y36A | -2.2 kcal/mol/K | 0.4 kcal/mol | -11.9 kcal/mol | 60 nM | 1.9 | – | – | – | –
chain 1 R32A | -2.2 kcal/mol/K | -0.5 kcal/mol | -12.7 kcal/mol | – | 0.4 | – | – | – | –
chain 1 R18A R19A R22A R26A R29A P38A L39A | – | – | – | – | – | > 200 | – | – | –
chain 1 F36L | – | – | – | – | – | 1.8 | -0.3 kcal/mol | -8.4 kcal/mol | -9.7 kcal/mol

The next lines start with the values.

screen value [1] | ddG [2] | screen value [2] | Kd [2] | ratio to parent [2] | ratio to parent [3] | ddG [3] | screen value [3] | dG [3] | Variant
-0.9 kcal/mol/K | -0.02 kcal/mol | -10.9 kcal/mol | – | 1.1 | – | – | – | – | chain 1 Y36L
– | – | – | 194 nM | – | – | – | – | – | chain 1 R19A R20A R23A R26A
– | – | – | – | – | 0.6 | -0.4 kcal/mol | -9.9 kcal/mol | -10.3 kcal/mol | chain 1 R18K R19K R22K R26K R29K
